Target: MAST3-HA (human) (UniProt O60307)
Sequence (O60307 313-1021): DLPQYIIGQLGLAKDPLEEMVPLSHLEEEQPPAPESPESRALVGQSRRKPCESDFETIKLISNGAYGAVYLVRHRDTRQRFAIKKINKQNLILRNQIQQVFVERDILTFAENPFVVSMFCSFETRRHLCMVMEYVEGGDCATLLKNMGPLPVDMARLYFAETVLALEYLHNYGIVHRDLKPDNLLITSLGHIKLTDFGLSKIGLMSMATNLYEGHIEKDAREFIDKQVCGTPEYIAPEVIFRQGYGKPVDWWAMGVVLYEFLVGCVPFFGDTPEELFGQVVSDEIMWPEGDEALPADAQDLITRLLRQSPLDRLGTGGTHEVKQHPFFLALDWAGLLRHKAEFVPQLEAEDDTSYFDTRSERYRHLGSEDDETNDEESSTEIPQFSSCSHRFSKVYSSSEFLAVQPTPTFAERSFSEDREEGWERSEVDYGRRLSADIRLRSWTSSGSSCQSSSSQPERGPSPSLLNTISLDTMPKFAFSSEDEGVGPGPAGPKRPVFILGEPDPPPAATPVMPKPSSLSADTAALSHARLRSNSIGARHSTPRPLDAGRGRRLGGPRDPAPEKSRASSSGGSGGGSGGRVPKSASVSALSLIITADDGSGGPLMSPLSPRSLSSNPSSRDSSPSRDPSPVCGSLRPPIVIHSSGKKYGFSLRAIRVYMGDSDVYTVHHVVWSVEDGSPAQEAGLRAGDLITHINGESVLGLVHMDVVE

Km of phosphorylation of Ser46 by immunoprecipitated MAST3 (32P incorporation, 10-500 nM substrate, 2 min; Figure 1b) [µM]	Km of phosphorylation of Ser46 by immunoprecipitated MAST3 (32P incorporation, 10-500 nM substrate, 2 min; Figure 1—figure supplement 1) [µM]	Binder
0.158		P-S88-ARPP-16 (natural protein, phosphoserine at 88 (by PKA, to a maximal stoichiometry)) MEDKVTSPEKAEEAKLKARYPHLGQKPGGSDFLRKRLQKGQKYFDSGDYNMAKAKMKNKQLPTAAPDKTEVTGDHIPTPQDLPQRKPSLVASKLAG
	0.138	6xHis-S88D-ARPP-16 (natural protein) MEDKVTSPEKAEEAKLKARYPHLGQKPGGSDFLRKRLQKGQKYFDSGDYNMAKAKMKNKQLPTAAPDKTEVTGDHIPTPQDLPQRKPDLVASKLAG

Source: paper PMC5515580
